# Results reported in patent US20070202098A1.
# Target: His-tagged V158 FcγRIIIa (human) (UniProt P08637)
# Assay: SPR
# Sequence of His-tagged V158 FcγRIIIa (human) (P08637 17-208 F176V): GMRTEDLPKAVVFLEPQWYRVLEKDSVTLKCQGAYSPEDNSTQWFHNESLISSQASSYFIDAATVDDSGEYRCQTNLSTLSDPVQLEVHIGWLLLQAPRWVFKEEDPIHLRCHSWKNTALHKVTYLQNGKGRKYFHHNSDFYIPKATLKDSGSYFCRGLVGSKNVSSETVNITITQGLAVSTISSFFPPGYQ
row,"Fold (Kd, over WT) [fold]",Substance
1,4,alemtuzumab Fc variant 30 V264I/I332E (antibody)

# Target: extracellular region of human F158 FcγRIIIa, GST-tagged (human) (UniProt P08637)
# Assay: SPR
# Sequence of extracellular region of human F158 FcγRIIIa, GST-tagged (human) (P08637 17-208): as the sequence (P08637 17-208 F176V) above, with V160F counted along it
"Fold (Kd, over WT) [fold]",Kd [µM],Substance
14,0.052,alemtuzumab Fc variant 30 V264I/I332E (antibody)

# Target: FcγRIIIa on human PBMC effector cells (heterozygous V158/F158 or allotype not stated) (human) (UniProt P08637)
# Sequence (P08637 17-254): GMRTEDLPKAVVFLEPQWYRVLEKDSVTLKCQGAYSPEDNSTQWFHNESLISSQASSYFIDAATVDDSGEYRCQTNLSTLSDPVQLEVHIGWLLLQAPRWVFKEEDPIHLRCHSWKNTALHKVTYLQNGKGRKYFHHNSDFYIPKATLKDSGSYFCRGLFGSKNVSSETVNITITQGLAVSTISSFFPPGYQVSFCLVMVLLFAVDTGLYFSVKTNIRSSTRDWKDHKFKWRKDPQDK
# Assay: cell-based or functional assay
"ADCC EC50, DoHH-2 targets, human PBMCs [ng/mL]",ADCC Fold Improvement Over WT [fold],"ADCC log(EC50), DoHH-2 targets, human PBMCs",Substance
4,2.5,0.6 log(ng/ml),alemtuzumab Fc variant 30 V264I/I332E (antibody)
3,3.3,0.49 log(ng/ml),alemtuzumab Fc variant 90 S239D/I332E (antibody)

# Target: His-tagged V158 FcγRIIIa (human) (UniProt P08637)
# Assay: SPR, receptor immobilized, antibody flowed
row,Kd [µM],Substance
1,0.064,alemtuzumab Fc variant 3 V264I (antibody)
2,0.031,alemtuzumab Fc variant 22 I332E (antibody)
3,0.017,alemtuzumab Fc variant 30 V264I/I332E (antibody)
4,0.052,alemtuzumab Fc variant 35 S298A (antibody)
5,0.039,alemtuzumab Fc variant 37 S298A/E333A/K334A (antibody)

# Target: extracellular region of human F158 FcγRIIIa, GST-tagged (human) (UniProt P08637)
# Assay: AlphaScreen competition
"Fold (IC50, over WT) [fold]",IC50 [µM],Substance
15.6,0.0011,alemtuzumab Fc variant 30 V264I/I332E (antibody)

# Target: extracellular region of human V158 FcγRIIIa fused with glutathione S-Transferase (GST) (human) (UniProt P08637)
# Sequence (P08637 17-208 F176V): as the sequence (P08637 17-208 F176V) above
# Assay: AlphaScreen competition
FcγRIIIa Fold [fold],"Fold (IC50, over WT) [fold]",IC50 [µM],Substance
12.5,12.8,0.0005,alemtuzumab Fc variant 30 V264I/I332E (antibody)
56.1,–,–,alemtuzumab Fc variant 90 S239D/I332E (antibody)
59.1,–,–,trastuzumab Fc variant 219 S239D/I332E/A330I (antibody)
1.09,–,–,trastuzumab Fc variant 221 P230A (antibody)
0.85,–,–,trastuzumab Fc variant 222 E233D (antibody)
0.92,–,–,trastuzumab Fc variant 223 P230A/E233D (antibody)
1.87,–,–,trastuzumab Fc variant 224 P230A/E233D/I332E (antibody)
8.7,–,–,trastuzumab Fc variant 238 E272Y (antibody)
0.79,–,–,trastuzumab Fc variant 239 V273I (antibody)
1.41,–,–,trastuzumab Fc variant 240 K274T (antibody)
6.11,–,–,trastuzumab Fc variant 241 K274E (antibody)
1.41,–,–,trastuzumab Fc variant 242 K274R (antibody)
1.09,–,–,trastuzumab Fc variant 243 K274L (antibody)
1.06,–,–,trastuzumab Fc variant 244 K274Y (antibody)
1.11,–,–,trastuzumab Fc variant 245 F275W (antibody)
0.41,–,–,trastuzumab Fc variant 246 N276S (antibody)
0.87,–,–,trastuzumab Fc variant 247 N276E (antibody)
0.66,–,–,trastuzumab Fc variant 248 N276R (antibody)
0.56,–,–,trastuzumab Fc variant 250 N276Y (antibody)
1.87,–,–,trastuzumab Fc variant 251 Y278T (antibody)
0.9,–,–,trastuzumab Fc variant 252 Y278E (antibody)
0.41,–,–,trastuzumab Fc variant 254 Y278W (antibody)

FcγRIIIa Fold [fold],"Fold (IC50, over WT) [fold]",IC50 [µM],Substance
0.67,–,–,trastuzumab Fc variant 255 E283R (antibody)
1.01,–,–,trastuzumab Fc variant 256 V302I (antibody)
1.06,–,–,trastuzumab Fc variant 257 E318R (antibody)
0.83,–,–,trastuzumab Fc variant 263 V323I (antibody)
0.71,–,–,trastuzumab Fc variant 266 S324R (antibody)
1.15,–,–,trastuzumab Fc variant 267 S324I (antibody)
1.17,–,–,trastuzumab Fc variant 268 S324V (antibody)
0.98,–,–,trastuzumab Fc variant 270 S324Y (antibody)
1.43,–,–,trastuzumab Fc variant 272 K326I (antibody)
1.88,–,–,trastuzumab Fc variant 273 K326T (antibody)
0.78,–,–,trastuzumab Fc variant 281 E333T (antibody)
0.75,–,–,trastuzumab Fc variant 282 E333H (antibody)
2.79,–,–,trastuzumab Fc variant 288 T335D (antibody)
2.58,–,–,trastuzumab Fc variant 289 T335R (antibody)
1.56,–,–,trastuzumab Fc variant 290 T335Y (antibody)
0.07,–,–,trastuzumab Fc variant 291 L234I/L235D (antibody)
1.72,–,–,trastuzumab Fc variant 292 V240I/V266I (antibody)
22.4,–,–,trastuzumab Fc variant 293 S239D/A330Y/I332E/L234I (antibody)
7.04,–,–,trastuzumab Fc variant 294 S239D/A330Y/I332E/L235D (antibody)
28,–,–,trastuzumab Fc variant 295 S239D/A330Y/I332E/V240I (antibody)
17.7,–,–,trastuzumab Fc variant 296 S239D/A330Y/I332E/V264T (antibody)
64.1,–,–,trastuzumab Fc variant 298 S239D/A330Y/I332E/K326E (antibody)
